From PMC1635305 (Nucleic Acids Research, 2006) come the findings set out here.

Where two headings read alike, the source gives them in different places.

Data set [1] concerns the molecule itself. Put plainly: negative-stain electron microscopy single-particle reconstruction.
Data set [2] deals with the molecule itself. Described as above. This is another data set of the same source.

B1: Methanothermobacter thermautotrophicus MCM (natural protein, UniProt O27798 1-666, looked up)
chain: MMKTVDKSKTLTKFEEFFSLQDYKDRVFEAIEKYPNVRSIEVDYLDLEMFDPDLADLLIEKPDDVIRAAQQAIRNIDRLRKNVDLNIRFSGISNVIPLRELRSKFIGKFVAVDGIVRKTDEIRPRIVKAVFECRGCMRHHAVTQSTNMITEPSLCSECGGRSFRLLQDESEFLDTQTLKLQEPLENLSGGEQPRQITVVLEDDLVDTLTPGDIVRVTGTLRTVRDERTKRFKNFIYGNYTEFLEQEFEELQISEEDEEKIKELAGDPNIYEKIIRSTAPSIHGYREVKEAIALQLFGGTGKELDDKTRLRGDIHILIVGDPGIGKSQMLKYVSKLAPRGIYTSGKGTSGVGLTAAAVRDEFGGWSLEAGALVLGDKGNVCVDELDKMREEDRSAIHEALEQQTISIAKAGIMATLNSRCSVLAAANPKFGRFDSYKSIAEQIDLPSTILSRFDLIFVVEDKPDEEKDRELARHILKTHKEDHMPFEIDPELLRKYIAYARKNVRPVLTDEAMQVLEDFYVSMRASAADEDSPVPITARQLEALVRLSEASAKIKLKEHVEAEDARKAIKLSQACLKQVGYDPETGKIDIDKVEGRTPKSERDKFRLLLELIKEYEDDYGGRAPTNILITEMMDRYNVSEEKVEELIRILKDKGAIFEPARGYLKIV
Turning to B1, the “stoichiometry N” value in data set [1] was 14; in data set [2], 12.

One may read the stoichiometry N as a count of units in the complex or per binding partner.
